From patent publication US20260049134A1 (UNIVERSITY OF FLORIDA RESEARCH FOUNDATION, published 2026)
Numbering of substitutions follows the chain as printed. In names and notes the source's numbering stands.

B1: HW-42 chimeric rabbit-human IgG1 LA/LA/PG (antibody, V domains shown)
VH: QSVKESEGGLFKPADTLTLTCTVSGFSLSSNEISWVRQAPGEGLEYIGIIDTGGRAYYAVWARSRSTITRNTNLNTVTLKMTSLTAADTATYFCARGGVDTEWYAFSSWGPGTLVTVPS
VL: SFVLTQPASVQVNLGQTVSLTCTADTLSRRYASWYQQKPGQAPVLLIFRDTSRPSGVPDRFSGSSSGDTATLTISGAQAGDEADYYCATSDGSGSNYQYVFGGGTQLTVTG
notes: Fc-silenced (L234A/L235A/P329G) IgG1, lambda; Alexa Fluor 647-labeled in single-step flow cytometry; Cluster C-1
B2: HW-70 chimeric rabbit-human IgG1 LA/LA/PG (antibody, V domains shown)
VH: QSLEESGGRLVTPGTPLTLTCTVSGFSLSSNAMSWVRQAPGKGLEWIGTIDGYGYTYYASWAKGRFTVSKTSTTVDLKITSPTTEDTATYFCAREIYLGSNFWGPGTLVTISS
VL: B1 VL with F48Y, D68N, S90A, N96S, Y99F
notes: as for B1
B3: HW-25 chimeric rabbit-human IgG1 LA/LA/PG (antibody, V domains shown)
VH: QSLEESGGRLVTPGTPLTLTCTVSGFSLSSYAMGWVRQAPGKGLEWIGIIDSRGSTYYATWAKGRFTISKTSTTVDLKITSPTTEDTATYFCAREDSYYYDSFNLWGPGTLVTVSS
VL: B1 VL with F48Y, D68N, N96S, Y99C
notes: as for B1
B4: TH9-0022 (antibody, human IgG1, kappa, L234A L235A, V domains shown)
VH: QSLEESGGRLVTPGTPLTLTCTVSGFSLSSYAMNWVRQAPGKGLEWIGIINSYGSTYYASWAKGRFTISKTSTTVDLKITSPTTEDTATYFCARVTYDSYGYGYAPYGMDLWGPGTLVTVSS
VL: LVMTQTPSSTSNAVGGTVTIKCQASQSIGNVLAWYQQKPGQPPKLLIYAASTLASGVPSRVGGSRSGTEYTLTISGVQREDAATYYCLGSDSDSDIAFGGGTELEILR
notes: also called TH9-022; negative control

Each binder was assayed against T1, PTP4A3 (assay: ELISA on coated protein).
T1 construct: also called His-PTP4A3 (R&D Systems)
T1 sequence (chain, as listed by the source limits assumed): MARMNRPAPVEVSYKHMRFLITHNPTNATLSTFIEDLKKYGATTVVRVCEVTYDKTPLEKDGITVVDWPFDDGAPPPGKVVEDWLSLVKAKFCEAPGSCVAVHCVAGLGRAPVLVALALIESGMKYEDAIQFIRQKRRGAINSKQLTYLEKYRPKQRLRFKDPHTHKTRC

Binder | binding result
B1 | no binding (tested: 150 ng IgG1 per well)
B2 | no binding (tested: 150 ng IgG1 per well)
B3 | no binding (tested: 150 ng IgG1 per well)

The binders below were run against T2, ICAM1-Fc (R&D Systems) (human, UniProt P05362 28-480) (assay: ELISA on coated ICAM1-Fc).
T2 construct: Bought; also called ICAM-1/CD54; not shown: Fc of the bought fusion protein
Description: Recombinant purified ECDs (50-150 ng) of each putative target protein were coated, incubated with 150 ng of the indicated primary antibody, and binding was detected using a peroxidase-conjugated anti-human Fab secondary antibody. Heatmap represents averages of technical triplicates. (8B) Target validation via siRNA knockdown. H929 cells were transfected with siRNA pools targeting the putative antibody targets ICAM1, CADM1, and PTPRG. Cells were then subjected to cognate IgG binding analysis via flow cytometry. (NT, non-targeting siRNA).
ELISA ELISA was conducted as described previously. Briefly, 50-150 ng of antigen was coated overnight in half-area 96-well plates at 4° C., blocked with 3% BSA at 37° C. for 1 h, and 150 ng of chimeric rabbit/human IgG1 was added, incubating for 2 h at 37° C. […] After incubating at 37° C. for 15 min-1 h (depending on intensity of controls), data were acquired using a SpectraMax M5 plate reader (Molecular Devices).

T2 sequence (P05362 28-480): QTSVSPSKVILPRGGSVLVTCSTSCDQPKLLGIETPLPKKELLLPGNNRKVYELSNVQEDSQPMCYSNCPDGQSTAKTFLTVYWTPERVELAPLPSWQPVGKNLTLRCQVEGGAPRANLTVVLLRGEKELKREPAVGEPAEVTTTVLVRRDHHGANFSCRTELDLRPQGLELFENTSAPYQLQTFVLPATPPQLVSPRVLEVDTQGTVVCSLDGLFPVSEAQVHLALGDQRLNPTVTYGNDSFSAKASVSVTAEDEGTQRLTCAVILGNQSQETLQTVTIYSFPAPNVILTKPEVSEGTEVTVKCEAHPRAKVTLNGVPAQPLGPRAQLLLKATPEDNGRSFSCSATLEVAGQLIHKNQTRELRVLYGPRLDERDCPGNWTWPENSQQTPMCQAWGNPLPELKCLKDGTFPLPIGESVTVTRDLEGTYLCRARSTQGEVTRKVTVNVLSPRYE

Binder | binding result
B4 | no binding (tested: 150 ng IgG1 per well)
B1 | no binding (tested: 150 ng IgG1 per well)
B2 | no binding (tested: 150 ng IgG1 per well)
B3 | no binding (tested: 150 ng IgG1 per well)

These binders were tested against T3, PTPRG, endogenous in H929 multiple myeloma cells (human, UniProt P23470 20-1445) (assay: flow cytometry, IgG1 on H929 cells).
T3 construct: Native protein on H929 cells (flow cytometry, siRNA knockdown) and in H929 lysates (IP/MS); also called phosphatase receptor type γ
Description: Staining protocol. Cells were harvested (5×10⁴ cells per sample), washed once with phosphate-buffered saline (PBS) at RT, and a second time with ice-cold FACS buffer (PBS, 0.5% BSA, 2 mM EDTA, 0.1% NaN₃). Cells were stained in 50 μL of primary antibody for 30 min on ice, washed twice with 100 μL FACS buffer, stained with 50 μL of diluted secondary antibody, washed two more times in FACS, and then resuspended in 50 μL FACS buffer. Samples were acquired on an Accuri C6 Plus or a BD FACSCanto II flow cytometer (both from BD Biosciences). Data were analyzed using FlowJo version 10 software. Primary antibodies: Fab (10 μg/mL), IgG1 (0.1 to 50 μg/mL), or 25 μL polyclonal Fabs from periplasmic extracts. Polyclonal Fabs were produced by diluting bacterial stocks by a factor of 100 in autoinduction media and incubating overnight to induce expression as previously described. […] Viability stains: DAPI (Cell Signaling Technology) or SYTOX AADvanced Dead Cell Stain (Thermo Fisher Scientific). Labeling: The panel of chimeric rabbit/human IgG1s was labeled using the Alexa Fluor 647 Labeling Kit (Thermo Fisher Scientific, #A20173) to facilitate single-step staining. Competition: Unlabeled IgG1s were added at saturating concentrations of 60 μg/mL to block the target receptors, incubating on ice for 30 min, followed by the addition of an equal volume of the Alexa Fluor 647 labeled antibody at 2 μg/mL, and the mixture was incubated on ice for another 30 min.

T3 sequence (P23470 20-1445 limits assumed): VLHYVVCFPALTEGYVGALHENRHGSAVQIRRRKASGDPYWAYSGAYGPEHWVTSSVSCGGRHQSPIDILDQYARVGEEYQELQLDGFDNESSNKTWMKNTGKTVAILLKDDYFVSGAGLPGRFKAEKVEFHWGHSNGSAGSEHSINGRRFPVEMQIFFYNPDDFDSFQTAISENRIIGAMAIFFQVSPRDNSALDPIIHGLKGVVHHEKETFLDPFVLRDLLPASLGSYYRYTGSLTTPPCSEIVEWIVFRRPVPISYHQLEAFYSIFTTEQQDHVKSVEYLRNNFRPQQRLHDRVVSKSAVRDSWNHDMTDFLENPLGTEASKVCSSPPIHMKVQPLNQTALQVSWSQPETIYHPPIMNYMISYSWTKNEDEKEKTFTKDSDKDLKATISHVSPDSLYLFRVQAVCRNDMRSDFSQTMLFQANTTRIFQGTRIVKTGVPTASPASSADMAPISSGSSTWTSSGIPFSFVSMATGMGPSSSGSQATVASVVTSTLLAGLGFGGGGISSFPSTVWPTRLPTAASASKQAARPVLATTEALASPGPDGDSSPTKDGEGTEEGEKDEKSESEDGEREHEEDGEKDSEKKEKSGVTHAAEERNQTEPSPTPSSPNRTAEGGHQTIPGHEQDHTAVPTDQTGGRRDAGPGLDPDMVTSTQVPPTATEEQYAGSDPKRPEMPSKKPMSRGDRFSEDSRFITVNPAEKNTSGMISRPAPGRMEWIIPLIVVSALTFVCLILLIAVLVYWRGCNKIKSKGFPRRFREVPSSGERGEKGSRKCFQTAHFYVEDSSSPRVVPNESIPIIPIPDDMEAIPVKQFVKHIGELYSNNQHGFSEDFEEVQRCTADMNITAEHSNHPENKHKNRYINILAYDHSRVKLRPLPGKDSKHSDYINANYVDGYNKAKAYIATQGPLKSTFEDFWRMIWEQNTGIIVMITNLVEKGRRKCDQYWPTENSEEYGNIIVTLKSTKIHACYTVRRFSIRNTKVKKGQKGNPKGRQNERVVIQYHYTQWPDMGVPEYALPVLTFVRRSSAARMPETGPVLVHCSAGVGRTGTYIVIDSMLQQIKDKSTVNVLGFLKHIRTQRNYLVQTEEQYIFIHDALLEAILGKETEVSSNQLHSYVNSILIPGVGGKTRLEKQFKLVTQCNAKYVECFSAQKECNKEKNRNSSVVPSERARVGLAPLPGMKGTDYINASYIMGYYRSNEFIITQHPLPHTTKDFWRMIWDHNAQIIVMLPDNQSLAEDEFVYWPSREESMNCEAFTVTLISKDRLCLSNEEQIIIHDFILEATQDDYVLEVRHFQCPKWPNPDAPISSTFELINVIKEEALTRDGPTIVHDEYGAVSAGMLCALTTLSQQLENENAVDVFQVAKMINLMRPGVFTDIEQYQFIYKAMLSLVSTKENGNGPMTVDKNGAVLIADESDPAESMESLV

Binder | antibody-bound positive cells (%)
B1 | 99.8%
B2 | 99.8%
B3 | 99.6%
